Assay results reported in the supplement of paper PMC7877785.
± gives the uncertainty stated by the source.

Assay: self-splicing fitness, log relative to wild type (ln ratio); higher = more splicing; Tetrahymena group I intron in knt gene, E. coli kanamycin selection, DiMSum; sequences stand for … in CUCUCU…GGAGGGAAAAGUUAUCAGGCAUGCACCUGGUAGCUAGUCUUUAAACCAAUAGAUUGCAUCGGUUUAAAAGGCAAGACCGUCAAAUUGCGGGAAAGGGGUCAACAGCCGUUCAGUACCAAGUCUCAGGGGAAACUUUGAGAUGGCCUUGCAAAGGGUAUGGUAAUAAGCUGACGGACAUGGUCCUAACCACGCAGCCAAGUCCUAAGUCAACAGAUCUUCUGUUGAUAUGGAUGCAGUUCACAGACUAAAUGUCGGUCGGGGAAGAUGUAUUCUUCUCAUAAGAUAUAGUCGGACCUCUCCUUAAUGGGAGCUAGCGGAUGAAGUGAUGCAACACUGGAGCCGCUGGGAACUAAUUUGUAUGCGAAAGUAUAUUGAUUAGUUUUGGAGUACUCGUGGUCG
Procedure, shortened: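 Six replicate transformations of E. coli BL21(DE3) with a pET-22b(+) library were grown overnight at 37°C or 30°C. The library randomised all eight P1ex-region intron nucleotides, the intron lying in the knt kanamycin-resistance gene, and plates were LB agar with or without 25 μg/mL kanamycin plus 100 μg/mL carbenicillin, 50 μM IPTG and 0.2% rhamnose. Pooled colonies were amplicon-sequenced on an Illumina HiSeq 2500, and fitness is the DiMSum error-weighted combination of wild-type-normalised replicate fold changes, kanamycin versus none.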

| Sequence | self-splicing fitness (ln) (30 °C) | self-splicing fitness (ln) (37 °C) |
| --- | --- | --- |
| GUGUAGCAAUAUUACGGAUA | -2.46 ± 0.23 | -0.0303 ± 0.17 |
| GUGUAGCAAUAUUACGGAUC | -1.04 ± 0.13 | 0.406 ± 0.17 |
| GUGUAGCAAUAUUACGGCAU | -3.48 ± 0.41 | -0.582 ± 0.2 |
| GUGUAGCAAUAUUACGGCCG | -0.432 ± 0.22 | -0.71 ± 0.34 |
| GUGUAGCAAUAUUACGGCGC | -2.06 ± 0.44 | -0.968 ± 0.32 |
| GUGUAGCAAUAUUACGUACG | -2.64 ± 0.23 | -1.14 ± 0.16 |
| GUGUAGCAAUAUUACGUAGC | -3.09 ± 0.23 | -1.41 ± 0.28 |
| GUGUAGCAAUAUUACGUCGU | -1.67 ± 0.15 | -1.1 ± 0.16 |
| GUGUAGCAAUAUUACGUGGA | -3.41 ± 0.3 | -2.04 ± 0.23 |
| GUGUAGCAAUAUUACGUGGU | -3.96 ± 0.27 | -1.17 ± 0.22 |
| GUGUAGCAAUAUUACGUGUG | -3.21 ± 0.18 | -1.69 ± 0.15 |
| GUGUAGCAAUAUUACGUUAA | -2.21 ± 0.2 | -1.8 ± 0.16 |
| GUGUAGCAAUAUUACGUUGG | -4.05 ± 0.42 | -2.06 ± 0.21 |
| GUUAAGCAAUAUUACGAAGC | -2.32 ± 0.41 | -1.82 ± 0.3 |
| GUUAAGCAAUAUUACGAAUA | -1.19 ± 0.25 | -0.46 ± 0.32 |
| GUUAAGCAAUAUUACGACGA | -1.13 ± 0.11 | -1.14 ± 0.12 |
| GUUAAGCAAUAUUACGCAAU | -3.09 ± 0.44 | – |
| GUUAAGCAAUAUUACGCCAC | -3.63 ± 0.4 | -3.27 ± 0.47 |
| GUUAAGCAAUAUUACGCUGC | -3.43 ± 0.33 | -1.49 ± 0.32 |

| Sequence | self-splicing fitness (ln) (30 °C) | self-splicing fitness (ln) (37 °C) |
| --- | --- | --- |
| GUUAAGCAAUAUUACGGAUC | -0.695 ± 0.09 | 0.135 ± 0.12 |
| GUUAAGCAAUAUUACGGCCA | -0.63 ± 0.17 | -0.359 ± 0.23 |
| GUUAAGCAAUAUUACGGCCG | -1.61 ± 0.2 | -0.597 ± 0.37 |
| GUUAAGCAAUAUUACGGCGC | 0.441 ± 0.15 | -0.509 ± 0.14 |
| GUUAAGCAAUAUUACGGGCC | – | -2.12 ± 0.37 |
| GUUAAGCAAUAUUACGGUCG | -1.32 ± 0.066 | -0.767 ± 0.094 |
| GUUAAGCAAUAUUACGGUGG | -3.52 ± 0.17 | -1.78 ± 0.15 |
| GUUAAGCAAUAUUACGUCAA | -1.38 ± 0.11 | -1.33 ± 0.13 |
| GUUAAGCAAUAUUACGUCGG | -2.75 ± 0.2 | -2.55 ± 0.25 |
| GUUAAGCAAUAUUACGUCUC | -0.932 ± 0.1 | -0.514 ± 0.12 |
| GUUAAGCAAUAUUACGUCUG | -1.38 ± 0.098 | -1.3 ± 0.13 |
| GUUAAGCAAUAUUACGUGCU | -1.6 ± 0.087 | -0.714 ± 0.11 |
| GUUAAGCAAUAUUACGUUUG | -2.55 ± 0.12 | -1.86 ± 0.17 |
| GUUCAGCAAUAUUACGACUC | 0.0553 ± 0.47 | – |
| GUUCAGCAAUAUUACGAGGG | -2.72 ± 0.19 | -0.563 ± 0.16 |
| GUUCAGCAAUAUUACGAGUU | -1.43 ± 0.088 | -0.77 ± 0.086 |
| GUUCAGCAAUAUUACGCCCA | -0.553 ± 0.1 | -1.26 ± 0.1 |
| GUUCAGCAAUAUUACGCCUC | -0.427 ± 0.14 | 0.0352 ± 0.16 |
| GUUCAGCAAUAUUACGCGUA | -0.404 ± 0.12 | -0.287 ± 0.15 |
